Results as given in patent US6913892.
Like-named read-outs stand apart in the source and are kept apart here.

Columns and labels:
[1] = biological target: Y2-like receptor population expressed by human SK-N-Be(2) neuroblastoma cells; experiment: 125I-PYY displacement, SK-N-Be(2) membranes
[2] = biological target: human Y2 receptor (human) (UniProt P49146); experiment: 125I-PYY displacement, COS-7 membranes
[3] = biological target: human Y4 receptor (human) (UniProt P0DQD5); experiment: 125I-PYY displacement, COS-7 membranes
Chain of human Y4 receptor (human) (P0DQD5 whole entry): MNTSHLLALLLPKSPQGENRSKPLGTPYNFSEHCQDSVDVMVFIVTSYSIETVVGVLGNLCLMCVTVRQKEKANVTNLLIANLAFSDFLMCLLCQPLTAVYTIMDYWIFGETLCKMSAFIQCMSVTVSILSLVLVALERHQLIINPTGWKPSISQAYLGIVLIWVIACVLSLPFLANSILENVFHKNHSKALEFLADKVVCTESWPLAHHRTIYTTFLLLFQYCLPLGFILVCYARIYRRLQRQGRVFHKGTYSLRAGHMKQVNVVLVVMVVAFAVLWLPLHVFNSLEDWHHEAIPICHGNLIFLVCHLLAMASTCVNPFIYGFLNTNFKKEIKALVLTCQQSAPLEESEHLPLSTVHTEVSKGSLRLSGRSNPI

[4] = biological target: human Y1 receptor (human) (UniProt P25929); experiment: 125I-PYY displacement, COS-7 membranes
Chain of human Y1 receptor (human) (P25929 whole entry): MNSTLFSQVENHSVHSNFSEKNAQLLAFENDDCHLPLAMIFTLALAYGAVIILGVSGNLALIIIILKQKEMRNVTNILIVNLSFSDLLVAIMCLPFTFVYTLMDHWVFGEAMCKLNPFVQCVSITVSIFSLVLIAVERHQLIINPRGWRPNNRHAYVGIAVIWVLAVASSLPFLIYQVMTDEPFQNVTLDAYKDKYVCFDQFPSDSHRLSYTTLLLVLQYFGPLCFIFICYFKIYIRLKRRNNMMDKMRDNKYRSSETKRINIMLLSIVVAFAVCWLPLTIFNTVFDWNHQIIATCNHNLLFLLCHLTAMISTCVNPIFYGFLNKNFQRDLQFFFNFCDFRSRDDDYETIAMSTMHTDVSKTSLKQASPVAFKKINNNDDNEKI

[5] = biological target: rat Y4 receptor (rat) (UniProt Q63447); experiment: 125I-PYY displacement, COS-7 membranes
Chain of rat Y4 receptor (rat) (Q63447 whole entry R262P): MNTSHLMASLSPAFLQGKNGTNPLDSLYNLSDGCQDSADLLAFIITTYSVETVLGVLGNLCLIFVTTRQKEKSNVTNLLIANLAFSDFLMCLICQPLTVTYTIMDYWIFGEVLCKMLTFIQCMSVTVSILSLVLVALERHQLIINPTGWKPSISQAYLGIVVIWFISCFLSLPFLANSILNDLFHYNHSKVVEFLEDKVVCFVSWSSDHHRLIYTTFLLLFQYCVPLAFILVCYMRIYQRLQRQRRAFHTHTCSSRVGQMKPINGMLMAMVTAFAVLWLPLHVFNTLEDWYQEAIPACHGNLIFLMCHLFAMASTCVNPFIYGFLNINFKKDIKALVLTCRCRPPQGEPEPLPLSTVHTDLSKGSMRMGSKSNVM

[6] = biological target: human Y4 receptor (human) (UniProt P0DQD5); experiment: 125I-PYY displacement, COS-7 membranes; remark: listed apart in the source
[7] = biological target: human Y1 receptor (human) (UniProt P25929); experiment: 125I-PYY displacement, COS-7 membranes; remark: listed apart in the source
[8] = biological target: human Y4 receptor (human) (UniProt P0DQD5); experiment: ratio of Ki values, 125I-PYY displacement
[9] = biological target: Y2-like receptor population expressed by human SK-N-Be(2) neuroblastoma cells; experiment: ratio of Ki values, 125I-PYY displacement
[10] = biological target: human Y1 receptor (human) (UniProt P25929); experiment: ratio of Ki values, 125I-PYY displacement
[11] = biological target: human Y4 receptor (human) (UniProt P0DQD5); experiment: 125I-PYY displacement, COS-7 membranes (as in Table 3)
[12] = biological target: human Y4 receptor (human) (UniProt P0DQD5); experiment: cell-based or functional assay
[13] = biological target: human Y4 receptor (human) (UniProt P0DQD5); experiment: 125I-PYY displacement, COS-7 membranes; remark: listed apart in the source

Chain of human Y2 receptor (human) (P49146 whole entry): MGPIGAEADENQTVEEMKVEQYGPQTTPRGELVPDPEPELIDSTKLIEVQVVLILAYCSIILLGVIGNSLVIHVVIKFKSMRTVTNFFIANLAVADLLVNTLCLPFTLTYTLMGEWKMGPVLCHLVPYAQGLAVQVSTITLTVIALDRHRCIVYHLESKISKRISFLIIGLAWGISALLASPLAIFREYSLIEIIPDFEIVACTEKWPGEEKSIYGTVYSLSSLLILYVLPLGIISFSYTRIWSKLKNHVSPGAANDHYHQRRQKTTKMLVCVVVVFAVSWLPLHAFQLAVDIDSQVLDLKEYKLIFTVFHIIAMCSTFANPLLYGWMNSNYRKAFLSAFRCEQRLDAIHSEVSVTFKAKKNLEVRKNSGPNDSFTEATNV
Chain of PP, salmon (peptide) (P69092 whole entry): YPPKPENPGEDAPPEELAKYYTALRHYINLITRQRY

Ki [1] [nM]	Ki [2] [nM]	Ki [3] [nM]	Ki [4] [nM]	Ki [6] [nM]	Ki [7] [nM]	Substance	also measured
280	–	–	–	–	–	human NPY free acid (from UniProt P01303 29-64) (peptide)	–
–	3.5	120	73	–	–	C2-NPY, porcine (peptide)	Ki [5]: 22 nM
3.2	18	–	–	140	170	porcine NPY22-36 (from UniProt P01304 31-45) (peptide)	fold loss in affinity against full length porcine NPY [8]: 120 fold; fold loss in affinity against full length porcine NPY [9]: 11 fold; fold loss in affinity against full length porcine NPY [10]: 3500 fold
2.1	–	–	70	63	28	porcine NPY18-36 (from UniProt P01304 27-45) (peptide)	Ki [11]: > 290 nM
–	–	7	400	–	–	PP, avian (peptide)	–
3.1	–	120	63	100	62	porcine NPY20-36 (from UniProt P01304 29-45) (peptide)	–
–	–	3.2	0.2	–	–	PP, salmon (peptide)	EC50, inhibition of forskolin-stimulated cAMP accumulation, LM(tk-) cells [12]: 110 nM; Ki [5]: 0.36 nM; Ki [11]: 3.2 nM
70	380	–	–	–	> 300	porcine NPY26-36 (from UniProt P01304 35-45) (peptide)	–
–	–	61	98	–	–	PP, frog (peptide)	Ki [13]: 62 nM; Ki [5]: 0.19 nM
0.11	–	–	–	–	–	human peptide YY (from UniProt P10082 29-64)	fold higher affinity than at hp25a [9]: 5 to 10 fold
–	–	–	–	–	–	PP31-36 free acid, human (from UniProt P01298 60-65) (peptide)	Ki [13]: > 10000 nM
–	2.5	38	70	39	51	porcine NPY13-36 (from UniProt P01304 22-45) (peptide)	Ki [5]: 135 nM
5	3.6	54	41	–	45	porcine NPY16-36 (from UniProt P01304 25-45) (peptide)	–
0.41	–	5.6	2.4	4.4	–	porcine NPY2-36 (from UniProt P01304 11-45) (peptide)	–
